Among the data in paper PMC11558822, “Myc 9aaTAD activation domain binds to mediator of transcription with superior high affinity” (Molecular Medicine, 2024) are Kd values, retold here.

No end group written: not given here. *: point of attachment. Biotin = O=C1N[C@H]2[C@H](CS[C@H]2CCCCC(=O)*)N1

Assay [1] concerns the target T1, KIX domain of CBP coactivator (region 586-672) (UniProt P45481 586-672).
T1 construct: GST-His6x tag removed by TEV protease; also called KIX protein; source: expressed as GST-His6x-TEV-KIX from pGEX-2T, purified (His trap Ni column, TEV cleavage, second His trap, HiLoad S30); not shown: GST, N-terminal, cleaved; His6, N-terminal, cleaved
In words: BLI; biotinylated peptide immobilised on streptavidin SA biosensors (Octet RED96e); KIX domain in solution at 0.31, 0.63, 1.25, 2.5 and 5.0 uM; 30 C, 1000 rpm; 20 mM sodium phosphate pH 6.0, 50 mM NaCl; blank-subtracted, 1:1 model, steady-state analysis; apparent KD, average of pentaplicate. As to conditions: both partners purified.

For assay [2], the target named is T1, KIX domain of CBP coactivator (region …). The experiment in a line: BLI; biotinylated Sp1 or Sp1-Ac peptide immobilised, KIX in solution in the 3-16 uM range; steady-state analysis, 1:1 model; apparent KD. As to conditions: both partners purified.

T1 sequence (P45481 other isoform, or with tags, fused parts or gaps): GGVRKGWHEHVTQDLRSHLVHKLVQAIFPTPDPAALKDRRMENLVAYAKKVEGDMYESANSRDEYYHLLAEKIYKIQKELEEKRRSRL

B1: c-Myc 9aaTAD peptide (Biotin-GSSS-TQLEMVTELLG) (peptide)
peptide: Biotin-GSSSTQLEMVTELLG
notes: linker between biotin and the c-Myc stretch; it may belong to the linker; also called c-Myc peptide; MYC peptide; source: synthetic peptide (Apeptide Shanghai Chutide Biotechnology), 95% purity
In the case of B1, the Kd in assay [1] was found to be 2160 ± 1170 nM.

B2: N-Myc 9aaTAD peptide (Biotin-GSSS-EPPSWVTEMLLEN) (peptide)
peptide: Biotin-GSSSEPPSWVTEMLLEN
notes: linker between biotin and the N-Myc stretch; human N-Myc stretch with its 9aaTAD; also called N-Myc peptide; NMY peptide; source: synthetic peptide (Apeptide Shanghai Chutide Biotechnology), 95% purity
As for B2, the Kd in assay [1] turned out to be 880 ± 110 nM.

B3: Sp1-Ac peptide, acidic form of Sp1 9aaTAD (Biotin-GSS-GDVSWDTLDLDDLD) (peptide)
peptide: Biotin-GSSGDVSWDTLDLDDLD
notes: linker between biotin and the Sp1 stretch; also called #SpD; acidic modification; source: synthetic peptide (Apeptide Shanghai Chutide Biotechnology), 95% purity
Take B3: the Kd in assay [2] amounted to 9770 ± 1570 nM.

B4: MLL 9aaTAD peptide (Biotin-GS-NILPSDIMDFVLKNT) (peptide)
peptide: Biotin-GSNILPSDIMDFVLKNT
notes: linker between biotin and the MLL stretch; MLL stretch with its 9aaTAD; Positive control of the BLI assay; also called MLL peptide; source: synthetic peptide (Apeptide Shanghai Chutide Biotechnology), 95% purity
Turning to B4, in assay [1], the Kd stood at 1170 ± 210 nM.
